Test results taken from patent US8663616B2, “Enzymatic peracid generation for use in oral care products” (E I du Pont de Nemours and Company, priority 2010, dated 2014).

Assays:
Format in all cases: biochemical
[1] = M. smegmatis aryl esterase constructs, peracetic acid in solution (Example 10); settings: 0.5 μM enzyme, 100 mM triacetin, 100 mM H2O2, pH 7.2, 30 min, 37° C.; no enzyme 158
Procedure: (§1) The detection of peracetic acid followed the method described in Pinkernell et. al. (Analyst, 1997, 122, 567) using colorimetric detection of 2,2′-azino-bis(3-ethylbenzothiazoline(-6-sulfonate (ABTS) oxidation by peracetic acid. Following the formation of peracetic acid with the addition of triacetin and hydrogen peroxide, 90 μL of solution was added to 10 μL of 0.1 M H3PO4 in a well plate. 50 μL of 1 M acetic acid, 50 μL of 0.5 g/L ABTS and 50 μL of 0.002 g/L of KI was added. The solution was allowed to develop for 5 min. The absorbance of the solution was measured at 405 nm using a microplate reader. The peracetic acid concentration was calculated based on a standard curve developed simultaneously using peracetic acid reagent solution.
For aryl esterase constructs, the enzyme activity in solution was measured by making a 1 mL solution of 0.5 μM of each enzyme, 100 mM triacetin, and 100 mM H2O2 in 100 mM phosphate buffer, pH 7.2. The solution was mixed and incubated for 30 min, at 37° C. As described in Example 7, the reaction was stopped by removing a portion to H3PO4 and a 10 μL aliquot was removed and diluted for detection via ABTS oxidation.

[2] = M. smegmatis aryl esterase constructs, peracetic acid when bound to hydroxyapatite particles (Example 10); settings: 33 mg HAP particles exposed to 10 μM enzyme; 100 mM triacetin, 100 mM H2O2, 30 min, 37° C.; no enzyme 323
Procedure: as §1
For assessment of binding and activity on hydroxyapatite, the aryl esterase enzymes were exposed to hydroxyapatite particles as described in Example 8 using 33 mg of buffer washed HAP particles (Macro-prep Ceramic Hydroxyapatite TYPE I, 80 μm size BioRad, Hercules, Calif.) using a 10 μM solution in 10 mM phosphate buffer. Following centrifugation and removal of the enzyme solution, the particles were rinsed with phosphate butter by centrifuging and removing the supernatant. A 200 μL solution containing 100 mM triacetin, 100 mM H2O2 and 100 mM phosphate buffer, pH 7.2 was added to the particles and incubated at 37° C. for 30 min. As described in Example 7, the reaction was stopped by removing a portion to H3PO4 and a 10 μL aliquot was removed diluted for detection via ABTS oxidation.

[3] = P. fluorescens perhydrolase constructs, peracetic acid when bound to hydroxyapatite particles (Example 10); settings: 100 mg HAP particles exposed to 20 μM enzyme; 300 mM H2O2, 1 M sodium acetate pH 5.5, 10 min, 37° C.; no enzyme 17
Procedure: as §1
(§2) For P. fluorescens constructs, the solution activity was measured by mixing a 1 mL solution containing 2 μM enzyme, 100 mM H2O2 in a 1 M sodium acetate buffer, pH 5.5. The solution was incubated at 37° C. for 30 min. As described in Example 7, the reaction was stopped by removing a portion to H3PO4 and a 10 μL aliquot was removed and diluted for detection via ABTS oxidation. For assessment of binding and activity on hydroxyapatite, the P. fluorescens enzymes were exposed to hydroxyapatite particles at 20 μM in 10 mM phosphate buffer as described in Example 8 using 100 mg of buffer washed HAP particles (Macro-prep Ceramic Hydroxyapatite TYPE I, 80 μm size BioRad, Hercules, Calif.). Following centrifugation and removal of the enzyme solution, the particles were rinsed with phosphate butter by centrifuging and removing the supernatant. A 200 μL solution containing 300 mM H2O2 in 1 M sodium acetate buffer, pH 5.5 was added to the particles and incubated at 37° C. for 10 min. As described in Example 7, the reaction was stopped by removing a portion to H3PO4 and a 10 μL aliquot was removed and diluted for detection via ABTS oxidation.

[4] = P. fluorescens perhydrolase constructs, peracetic acid in solution (Example 10); settings: 2 μM enzyme, 100 mM H2O2, 1 M sodium acetate pH 5.5, 30 min, 37° C.; no enzyme 9
Procedure: as §1, §2

Molecule | Peracetic acid (ppm) In Solution [1] [ppm] | Peracetic acid (ppm) On Hydroxyapatite [2] [ppm] | Peracetic acid (ppm) On Hydroxyapatite [3] [ppm] | Peracetic acid (ppm) In Solution [4] [ppm]
EZ-40: ArE-link1-DenP308-H6, SEQ ID NO: 464 (protein) MAKRILCFGDSLTWGWVPVEDGAPTERFAPDVRWTGVLAQQLGADFEVIEEGLVARTTNIDDPTDPRLNGASYLPSCLATHLPLDLVIIMLGTNDTKAYFRRTPLDIALGMSVLVTQVLTSAGGVGTTYPAPKVLVVSPPPLAPMPHPWFQLIFEGGEQKTTELARVYSALASFMKVPFFDAGSVISTDGVDGIHFTEANNRDLGVALAEQVRSLLGPGSGGAGSPGSAGGPGSDPTKPPRTPTANTSRPHHNFGSGGGGSPHHHHHH | 3605 | 2476 | – | –
EZ-41: Pfl-link1-H6, SEQ ID NO: 465 (protein) MSTFVAKDGTQIYFKDWGSGKPVLFSHGWPLDADMWEYQMEYLSSRGYRTIAFDRRGFGRSDQPWTGNDYDTFADDIAQLIEHLDLKEVTLVGFSMGGGDVARYIARHGSARVAGLVLLGAVTPLFGQKPDYPQGVPLDVFARFKTELLKDRAQFISDFNAPFYGINKGQVVSQGVQTQTLQIALLASLKATVDCVTAFAETDFRPDMAKIDVPTLVIHGDGDQIVPFETTGKVAAELIKGAELKVYKDAPHGFAVTHAQQLNEDLLAFLKRGPGSGGAGSPGSAGGPGSHHHHHH | – | – | 18 | –
EZ-43: Pfl-link1-DenP308-H6, SEQ ID NO: 467 (protein) MSTFVAKDGTQIYFKDWGSGKPVLFSHGWPLDADMWEYQMEYLSSRGYRTIAFDRRGFGRSDQPWTGNDYDTFADDIAQLIEHLDLKEVTLVGFSMGGGDVARYIARHGSARVAGLVLLGAVTPLFGQKPDYPQGVPLDVFARFKTELLKDRAQFISDFNAPFYGINKGQVVSQGVQTQTLQIALLASLKATVDCVTAFAETDFRPDMAKIDVPTLVIHGDGDQIVPFETTGKVAAELIKGAELKVYKDAPHGFAVTHAQQLNEDLLAFLKRGPGSGGAGSPGSAGGPGSDPTKPPRTPTANTSRPHHNFGSGGGGSPHHHHHH | – | – | 68 | 79
EZ-37: ArE-link1-H6, SEQ ID NO: 461 (protein) MAKRILCFGDSLTWGWVPVEDGAPTERFAPDVRWTGVLAQQLGADFEVIEEGLVARTTNIDDPTDPRLNGASYLPSCLATHLPLDLVIIMLGTNDTKAYFRRTPLDIALGMSVLVTQVLTSAGGVGTTYPAPKVLVVSPPPLAPMPHPWFQLIFEGGEQKTTELARVYSALASFMKVPFFDAGSVISTDGVDGIHFTEANNRDLGVALAEQVRSLLGPGSGGAGSPGSAGGPGSHHHHHH | – | 927 | – | –
EZ-36: M. smegmatis aryl esterase ArE S54V, untargeted, SEQ ID NO: 460 (protein, listed as Mycobacterium smegmatis) MAKRILCFGDSLTWGWVPVEDGAPTERFAPDVRWTGVLAQQLGADFEVIEEGLVARTTNIDDPTDPRLNGASYLPSCLATHLPLDLVIIMLGTNDTKAYFRRTPLDIALGMSVLVTQVLTSAGGVGTTYPAPKVLVVSPPPLAPMPHPWFQLIFEGGEQKTTELARVYSALASFMKVPFFDAGSVISTDGVDGIHFTEANNRDLGVALAEQVRSLL | 2697 | 452 | – | –
EZ-44: Pfl-link1-HC263-H6, SEQ ID NO: 479 (protein) MSTFVAKDGTQIYFKDWGSGKPVLFSHGWPLDADMWEYQMEYLSSRGYRTIAFDRRGFGRSDQPWTGNDYDTFADDIAQLIEHLDLKEVTLVGFSMGGGDVARYIARHGSARVAGLVLLGAVTPLFGQKPDYPQGVPLDVFARFKTELLKDRAQFISDFNAPFYGINKGQVVSQGVQTQTLQIALLASLKATVDCVTAFAETDFRPDMAKIDVPTLVIHGDGDQIVPFETTGKVAAELIKGAELKVYKDAPHGFAVTHAQQLNEDLLAFLKRGPGSGGAGSPGSAGGPGSPSAQSQLPDKHSGLHERAPQRYGPEPEPEPEPIPEPPKEAPVVIEKPKPKPKPKPKPPAHDHKNQKETHQRHAAGSGGGGSPHHHH | – | – | 97 | 58
EZ-42: Pfl-link1-(GK)5-H6, SEQ ID NO: 466 (protein) MSTFVAKDGTQIYFKDWGSGKPVLFSHGWPLDADMWEYQMEYLSSRGYRTIAFDRRGFGRSDQPWTGNDYDTFADDIAQLIEHLDLKEVTLVGFSMGGGDVARYIARHGSARVAGLVLLGAVTPLFGQKPDYPQGVPLDVFARFKTELLKDRAQFISDFNAPFYGINKGQVVSQGVQTQTLQIALLASLKATVDCVTAFAETDFRPDMAKIDVPTLVIHGDGDQIVPFETTGKVAAELIKGAELKVYKDAPHGFAVTHAQQLNEDLLAFLKRGPGSGGAGSPGSAGGPGSGKGKGKGKGKHHHHHH | – | – | 63 | 64
EZ-39: ArE-link1-(GK)5-H6, SEQ ID NO: 463 (protein) MAKRILCFGDSLTWGWVPVEDGAPTERFAPDVRWTGVLAQQLGADFEVIEEGLVARTTNIDDPTDPRLNGASYLPSCLATHLPLDLVIIMLGTNDTKAYFRRTPLDIALGMSVLVTQVLTSAGGVGTTYPAPKVLVVSPPPLAPMPHPWFQLIFEGGEQKTTELARVYSALASFMKVPFFDAGSVISTDGVDGIHFTEANNRDLGVALAEQVRSLLGPGSGGAGSPGSAGGPGSGKGKGKGKGKHHHHHH | 1366 | 3553 | – | –
